Assay results: patent US20160289270A1, “Methods, Peptides and Antibodies for Preventing, Treating and Diagnosing an Inflammatory Condition” (WESTFAELISCHE WILHELMS-UNIVERSITAET MUENSTER, priority 2013, published 2016)

target: TLR4/MD2 (Homo sapiens, UniProt O00206+Q9Y6Y9); assay: Modified S100A9-ELISA: binding of S100A9-wt and mutant proteins to plate-coupled TLR4/MD2; conditions: 2 μg/ml protein, two hours at room temperature, absorbance at 450 nm, FIG. 4B/4C
Description: Binding of S100A9 proteins to TLR4/MD2 was analysed by a modified S100A9-ELISA. Briefly, TLR4/MD2 was coupled to the wells of a 96-well plate and served as capturing molecule. After blocking of the unspecific binding sites by PBS/5% skim milk powder plates were washed three times. S100A9-wt or mutant S100A9 proteins were added at a concentration of 2 μg/ml each in the presence and absence of 100 μM Calcium and incubated for two hours at room temperature. Unbound S100A9 was removed by washing the plates for three times followed by the addition of a primary anti-S100A9-antibody (1 μg/ml, polyclonal, rabbit). After a washing step the secondary anti-rabbit-IgG-antibody coupled to HRP (1 μg/ml from Cell Signalling) was added. TMB was used as substrate for HRP to quantify binding by absorbance readings at 450 nm in an ELISA reader (Anthos Mikrosysteme).

TLR4/MD2, sequence (O00206 24-631 limits assumed): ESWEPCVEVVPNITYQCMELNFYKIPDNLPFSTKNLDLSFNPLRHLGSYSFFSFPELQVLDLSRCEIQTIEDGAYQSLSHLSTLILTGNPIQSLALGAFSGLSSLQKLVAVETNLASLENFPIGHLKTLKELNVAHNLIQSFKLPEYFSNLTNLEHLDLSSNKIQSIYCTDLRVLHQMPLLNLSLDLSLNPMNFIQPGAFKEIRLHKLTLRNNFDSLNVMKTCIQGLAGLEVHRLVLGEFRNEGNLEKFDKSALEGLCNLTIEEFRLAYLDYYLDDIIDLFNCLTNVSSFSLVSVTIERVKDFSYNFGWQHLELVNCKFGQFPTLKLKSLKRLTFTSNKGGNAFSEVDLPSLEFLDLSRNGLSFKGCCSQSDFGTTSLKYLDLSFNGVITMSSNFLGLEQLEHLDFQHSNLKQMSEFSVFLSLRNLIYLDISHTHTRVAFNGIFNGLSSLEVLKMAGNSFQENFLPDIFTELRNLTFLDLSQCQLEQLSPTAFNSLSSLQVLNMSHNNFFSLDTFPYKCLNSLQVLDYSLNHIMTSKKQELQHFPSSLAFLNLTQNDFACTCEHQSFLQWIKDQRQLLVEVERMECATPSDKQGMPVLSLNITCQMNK
TLR4/MD2, sequence (Q9Y6Y9 17-160 limits assumed): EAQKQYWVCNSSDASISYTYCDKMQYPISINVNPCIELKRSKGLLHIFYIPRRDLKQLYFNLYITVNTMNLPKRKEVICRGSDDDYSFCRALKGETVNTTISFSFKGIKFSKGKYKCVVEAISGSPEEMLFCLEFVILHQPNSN

Row | Molecule | binding to the receptor TLR4/MD2 compared to non-mutated protein (S100A9 wt)
1 | S100A9E64A: purified recombinant S100A9 mutant, alanine instead of E64 (protein) MTCKMSQLERNIETIINTFHQYSVKLGHPDTLNQGEFKELVRKDLQNFLKKENKNEKVIEHIMADLDTNADKQLSFEEFIMLMARLTWASHEKMHEGDEGPGHHHKPGLGEGTP | weaker binding
2 | S100A9D65A: purified recombinant S100A9 mutant, alanine instead of D65 (protein) MTCKMSQLERNIETIINTFHQYSVKLGHPDTLNQGEFKELVRKDLQNFLKKENKNEKVIEHIMEALDTNADKQLSFEEFIMLMARLTWASHEKMHEGDEGPGHHHKPGLGEGTP | weaker binding

Other lines, results leading:

Row | binding to the receptor TLR4/MD2 compared to non-mutated protein (S100A9 wt) | Molecule
3 | weaker binding | S100A9E77A: purified recombinant S100A9 mutant, alanine instead of E77 (protein) MTCKMSQLERNIETIINTFHQYSVKLGHPDTLNQGEFKELVRKDLQNFLKKENKNEKVIEHIMEDLDTNADKQLSFAEFIMLMARLTWASHEKMHEGDEGPGHHHKPGLGEGTP
4 | not significantly different | S100A9K72A: purified recombinant S100A9 mutant, alanine instead of K72 (protein) MTCKMSQLERNIETIINTFHQYSVKLGHPDTLNQGEFKELVRKDLQNFLKKENKNEKVIEHIMEDLDTNADAQLSFEEFIMLMARLTWASHEKMHEGDEGPGHHHKPGLGEGTP
5 | weaker binding | S100A9Q73A: purified recombinant S100A9 mutant, alanine instead of Q73 (protein) MTCKMSQLERNIETIINTFHQYSVKLGHPDTLNQGEFKELVRKDLQNFLKKENKNEKVIEHIMEDLDTNADKALSFEEFIMLMARLTWASHEKMHEGDEGPGHHHKPGLGEGTP
6 | not significantly different | S100A9R85A: purified recombinant S100A9 mutant, alanine instead of R85 (protein) MTCKMSQLERNIETIINTFHQYSVKLGHPDTLNQGEFKELVRKDLQNFLKKENKNEKVIEHIMEDLDTNADKQLSFEEFIMLMAALTWASHEKMHEGDEGPGHHHKPGLGEGTP

target: T1, his-tagged rhTLR4/MD2 (Homo sapiens, UniProt O00206+Q9Y6Y9); assay: Immunoprecipitation on TLR4/MD2-coupled beads, eluates analysed by MALDI-TOF mass spectrometry; type: binding; conditions: beads with TLR4/MD2, 3 h at 4° C., 1 mM Calcium, elution with 10 mM TRIS/2 mM EDTA
T1 construct: purchased R&D SYSTEMS
Description: Anti-His antibody (5 μL, 0.5 mg/mL, Invivogen) and his-tagged rhTLR4/MD2 (5 μL, 1 mg/mL, carrier free, R&D SYSTEMS) were mixed and coupled to Protein A/G Agarose ([…], Thermo Scientific). Trypsin digested peptides of S100A9 were added for 3 h at 4° C. in the presence of 1 mM Calcium. After washing of the beads in HBS/1 mM Ca-buffer for three times bound peptidic fragments were eluted by addition of 10 mM TRIS/2 mM EDTA-buffer and analysed by ESI and MALDI-TOF-mass spectrometry. Identical experiments were performed to analyze the binding of the chemical synthesized peptides of S100A9 (aa63-79), S100A8 (aa55-71) and the corresponding control peptides aa63-79 A5 and aa55-71 A3.

T1 sequence (O00206 24-631 limits assumed): as the sequence (O00206 24-631 limits assumed) above
T1 sequence (Q9Y6Y9 17-160 limits assumed): as the sequence (Q9Y6Y9 17-160 limits assumed) above

Row | Molecule | binding to TLR4/MD2 (peptide detected in eluate by MALDI-TOF mass spectrometry)
7 | 55-71: synthetic peptide, positions 55-71 of human S100A8, complete C-terminal EF hand, FKELDINTDGAVNFQEF | able to bind to TLR4/MD2
8 | 63-79: synthetic peptide, amino acid positions 63-79 of S100A9, complete C-terminal EF hand, MEDLDTNADKQLSFEEF | able to bind to TLR4/MD2

Further lines, results first:

Row | binding to TLR4/MD2 (peptide detected in eluate by MALDI-TOF mass spectrometry) | Molecule
9 | no binding could be detected | 63-79 A5: control peptide, S100A9 positions 63-79 with E64A, D65A, Q73A, E77A and K72A exchanged to alanine (MAALDTNADAALSFAEF) [reference compound]
10 | specific interaction with TLR4/MD2 | No. 15: tryptic fragment of human S100A9, amino acid sequence from positions 73 to 85, portion of the C-terminal EF Hand (QLSFEEFIMLMAR; UniProt P06702 73-85, looked up, fragment)
